Measured values as given in publication doi:10.1101/2024.02.22.580433 (bioRxiv, 2024).
Positions count from the first letter of the chain named. In names and notes the source's numbering stands.

B1: Acanthamoeba polyphaga mimivirus gp275 (encoded by gene R252) (natural protein, UniProt Q5UPU2 1-278, looked up)
chain: MMIHIHQDKKMSTRSNKKSTKTEKVAKATKPVENVEVSDNEVQEQAVKTKASGKKVTAKSTKQSGGKNAKSGSKSAKSGSKSAKSGSKTSKTQSGGKGDESRDRYFKLIDAKTGRSFGRYTGGTPKQAASKGFTKMIHKIKAEGGALPKNGTMKIYLRESTRGSPRKVYAYEATRKQLTEPQKIEIEGSDGKKKVITYRYRNVIHKVSAPLPNQLGGLKTSRSNKKSGETKKSGSRSSGSKRSAKPTKSAKNAKSTGNKKVSTKSAGAKKAPAAKASR
B2: gp275-K126A (natural protein, Acanthamoeba polyphaga mimivirus, UniProt Q5UPU2 1-278, looked up)
chain: B1 chain with K126A

Tests used:
[1] = target: gp275-do, the minimal MC1 domain of gp275 (Acanthamoeba polyphaga mimivirus) (UniProt Q5UPU2); experiment: SEC
SEC = target: the molecule itself; experiment: SEC

Row | Molecule | stoichiometry N [1] | stoichiometry N (SEC)
1 | gp275-do, the minimal MC1 domain of gp275 (from UniProt Q5UPU2 97-228) (domain or fragment) | 2 | –
2 | B1 | – | 4
3 | B2 | – | 4
